# B1: human lactoferrin (protein, UniProt P02788 20-710, looked up)
# Lactotransferrin: GRRRSVQWCAVSQPEATKCFQWQRNMRKVRGPPVSCIKRDSPIQCIQAIAENRADAVTLDGGFIYEAGLAPYKLRPVAAEVYGTERQPRTHYYAVAVVKKGGSFQLNELQGLKSCHTGLRRTAGWNVPIGTLRPFLNWTGPPEPIEAAVARFFSASCVPGADKGQFPNLCRLCAGTGENKCAFSSQEPYFSYSGAFKCLRDGAGDVAFIRESTVFEDLSDEAERDEYELLCPDNTRKPVDKFKDCHLARVPSHAVVARSVNGKEDAIWNLLRQAQEKFGKDKSPKFQLFGSPSGQKDLLFKDSAIGFSRVPPRIDSGLYLGSGYFTAIQNLRKSEEEVAARRARVVWCAVGEQELRKCNQWSGLSEGSVTCSSASTTEDCIALVLKGEADAMSLDGGYVYTAGKCGLVPVLAENYKSQQSSDPDPNCVDRPVEGYLAVAVVRRSDTSLTWNSVKGKKSCHTAVDRTAGWNIPMGLLFNQTGSCKFDEYFSQSCAPGSDPRSNLCALCIGDEQGENKCVPNSNERYYGYTGAFRCLAENAGDVAFVKDVTVLQNTDGNNNEAWAKDLKLADFALLCLDGKRKPVTEARSCHLAMAPNHAVVSRMDKVERLKQVLLHQQAKFGRNGSDCPDKFCLFQSETKNLLFNDNTECLARLHGKTTYEKYLGPQYVAGITNLKKCSTSPLLEACEFLRK
# How the values were obtained:
# C. albicans (ATCC 64549) = test: microbe, parasite or virus in culture; details: C. albicans ATCC 64549, 2×10^5 cells/ml, BHI diluted 1/100
# Description: In the examples, the minimal microbicidal concentrations (MMC) and minimal inhibitory concentrations (MIC) were determined as follows, unless otherwise specified in the examples. Bacterial or fungal strains were cultured in BHI medium over night at 37° C. A volume of the culture was transferred to a new tube with BHI and incubated for two more hours. Thereafter the cells were spun down and the pellet was suspended in BHI medium diluted 1/100 (1% BHI). The concentration of bacterial or fungal cells was spectrophotometrically determined at 650 nm. The microbial concentrations were also determined by viable counts. Peptides serially diluted in 1% BHI by twofold or tenfold steps were added in triplicate to the wells of a microtiterplate (200 μl per well). The bacterial or fungal cell solutions were added in 10 μl volumes to give a final concentration of approximately 1-5×10^5 cells per ml in the well. The microplate was incubated at 37° C. in a humid chamber for two hours. […] The microplate was incubated for another 20 hours at 37° C. and thereafter analysed spectrophotometrically at 650 nm in a microplate reader (Emax, Molecular Devices, USA). […] The MIC value was defined as the concentration giving no increase in the absorbance value above the background level after 20 hours of incubation. […]
# Candida krusei = test: fungicidal activity against Candida krusei strains (Example 4); assay type: cell-based; details: Exp. I
# Description: (§1) In this example the fungicidal activity of the peptides according to the invention was tested and compared to the fungicidal activity of human lactoferrin. Different concentrations of hLF, peptide 3 and peptide 4 were incubated with different strains of Candida albicans and Candida krusei during 1-2 hours at 37° C. in 0.05 mM KCl at pH 7.0 at two different occasions—experiment I and II, respectively. After incubation samples were taken for plating on Saboroud plates.
# Candida albicans [1] = test: fungicidal activity against Candida albicans, comparison with EP-A-0 629 347 peptides (Example 7); assay type: cell-based; details: C. albicans, I (tenfold steps)
# Description: In this example an in vitro test was performed to compare the bactericidal and fungicidal activity of the peptides according to the invention with peptides described in EP-A-0 629 347. The peptide according to the invention used was peptide 4, and the peptides according to EP-A-0 629 347 called Morinaga 10, Morinaga 11, Morinaga 12, and Morinaga 13.
# The peptides were incubated with E. coli O14 and Candida albicans. Two concentrations of C. albicans yeast cells were tested, 5·10^6 and 5·10^3 per ml. Different concentrations of the peptides were tested.
# After the incubation, samples were taken for bacterial plating. Serial dilutions of tenfold steps were used in the experiments marked with I in table 5 and of twofold steps in the experiments marked with II.
# E. coli O6K5 [2] = test: bactericidal activity, incubation with E. coli O6K5 (Example 3, exp. II); assay type: cell-based; details: Exp. II: 100% killing, E. coli O6K5, 1/100 BHI, 2 hours
# Description: (§2) Human lactoferrin (hLF), peptide 3, and peptide 4, respectively, were incubated with two different strains of E. coli, E. coli O14 (experiment I) and O6K5 (experiment II), in diluted growth medium ( 1/100 BHI—brain heart infusion) for 2 hours. The peptides were also incubated with E. coli O14 in 0.05 mM KCl (pH 7) without any growth medium (experiment III). Different concentrations of the peptides were tested.
# (§3) After the incubation, samples were taken for bacterial plating. Serial dilutions of five- and fourfold steps were used in experiments I and II, respectively, and of twofold steps in experiment III.
# (§4) The concentrations of the different peptides required for killing 100% (experiments I and II) or 90% (experiment III) of the bacteria are given in table 2.
# E. coli O6K5 [3] = test: urinary tract infection in mice, bacteria (CFU) in kidney (Example 6); assay type: in vivo; details: Exp II, mouse strain C3H/Tif, 500 μg per mouse orally 30 minutes after instillation, 24 hours
# Description: E. coli O6K5 was instilled into the urinary bladder of mice. 30 minutes after instillation the different agents specified in table 5 were administered orally in an amount of 500 μg per mouse and 24 hours after instillation the number of bacteria (CFU) present in bladder and in kidney was determined.
# The control group consisted of 10 animals in experiment I and of 23 animals in experiment II. The animals in the control groups were given tap water instead of peptide or hLF.
# [4] = test system: LPS-induced IL-6 response in a monocytic cell line (THP-1); test: inhibition of LPS-induced IL-6 response in THP-1 cells (Example 5); assay type: cell-based; details: IL-6 response in THP-1 cells, agent added 30 minutes after LPS
# Description: In this example an in vitro test was performed to study the anti-inflammatory activity of the peptides according to the invention. More precisely, the inhibitory effect of the peptides according to the invention on the LPS-induced IL-6 response in a monocytic cell line (THP-1) was studied and compared to the effect of human lactoferrin by use of the method described by I. Mattsby-Baltzer et al., Pediatr. Res. 40:257-262, 1996. The IL-6 response in the THP-1 cells was induced by addition of LPS. hLF, peptide 3 and peptide 4, respectively, were added 30 minutes after LPS.
# E. coli O14 = test: bactericidal activity, incubation with E. coli O14 (Example 3, exp. I and III); assay type: cell-based
# Description: as §2, §3, §4
# Candida albicans [5] = test: fungicidal activity against Candida albicans strains (Example 4); assay type: cell-based
# Description: as §1
molecule,measurement,setting,value
B1,MIC,C. albicans (ATCC 64549),1000 µg/mL
same,MMC99%,C. albicans (ATCC 64549),>1000 µg/mL
same,Concentration of agent for 99% killing,"Candida krusei; C. krusei CCUG 969, 0.05 mM KCl pH 7.0",25 µg/mL
same,Concentration of agent for 99% killing,"Candida krusei; C. krusei CCUG 35849, 0.05 mM KCl pH 7.0",12.5 µg/mL
same,Concentration of agent for 100% killing,Candida albicans [1]; 5 · 10^3 yeast cells per ml,>2000 µg/mL
same,Concentration of agent for 100% killing,Candida albicans [1]; 5 · 10^6 yeast cells per ml,>1000 µg/mL
same,Concentration of agent for 100%/90% killing,E. coli O6K5 [2],2000 µg/mL
same,"Statistical comparison of treatment group with control group of the number of bacteria, CFU, present in kidney (p, Mann-Whitney)",E. coli O6K5 [3],p = 0.006
same,% inhibition of LPS response,[4],15%
same,Concentration of agent for 100%/90% killing,"E. coli O14; Exp. I: 100% killing, E. coli O14, 1/100 BHI, 2 hours",400 µg/mL
same,Concentration of agent for 100%/90% killing,"E. coli O14; Exp. III: 90% killing, E. coli O14, 0.05 mM KCl (pH 7) without growth medium",>4000 µg/mL
same,Concentration of agent for 99% killing,"Candida albicans [5]; Exp. I, C. albicans ATCC 64549, 0.05 mM KCl pH 7.0, 1-2 hours 37° C.",>50 µg/mL
same,Concentration of agent for 99% killing,"Candida albicans [5]; Exp. I, C. albicans CCUG 90028, 0.05 mM KCl pH 7.0",>50 µg/mL
same,Concentration of agent for 99% killing,"Candida albicans [5]; Exp. II, C. albicans ATCC 64549, 0.05 mM KCl pH 7.0",>200 µg/mL
same,Concentration of agent for 99% killing,"Candida albicans [5]; Exp. II, C. albicans CCUG 599, 0.05 mM KCl pH 7.0",>200 µg/mL
same,Concentration of agent for 99% killing,"Candida albicans [5]; Exp. II, C. albicans CCUG 1759, 0.05 mM KCl pH 7.0",>200 µg/mL
